Paper PMC6079076, “Structure of the mouse TRPC4 ion channel” (Nature Communications, 2018)

Molecular target: the molecule itself
Assay: cryo-EM structure; single-particle cryo-EM of purified TRPC4 in digitonin, 30 mM HEPES, 150 mM NaCl, 1 mM DTT, pH 7.5; apo state; C4 symmetry imposed; 3.3 Å

B1: mouse TRPC4 (residues a.a. 1–758, excluding a.a. 759–974) (domain or fragment, UniProt Q9QUQ5 1-758, looked up)
chain: MAQFYYKRNVNAPYRDRIPLRIVRAESELSPSEKAYLNAVEKGDYASVKKSLEEAEIYFKININCIDPLGRTALLIAIENENLELIELLLSFNVYVGDALLHAIRKEVVGAVELLLNHKKPSGEKQVPPILLDKQFSEFTPDITPIILAAHTNNYEIIKLLVQKGVSVPRPHEVRCNCVECVSSSDVDSLRHSRSRLNIYKALASPSLIALSSEDPFLTAFQLSWELQELSKVENEFKSEYEELSRQCKQFAKDLLDQTRSSRELEIILNYRDDNSLIEEQSGNDLARLKLAIKYRQKEFVAQPNCQQLLASRWYDEFPGWRRRHWAVKMVTCFIIGLLFPVFSVCYLIAPKSPLGLFIRKPFIKFICHTASYLTFLFLLLLASQHIDRSDLNRQGPPPTIVEWMILPWVLGFIWGEIKQMWDGGLQDYIHDWWNLMDFVMNSLYLATISLKIVAFVKYSALNPRESWDMWHPTLVAEALFAIANIFSSLRLISLFTANSHLGPLQISLGRMLLDILKFLFIYCLVLLAFANGLNQLYFYYEETKGLSCKGIRCEKQNNAFSTLFETLQSLFWSIFGLINLYVTNVKAQHEFTEFVGATMFGTYNVISLVVLLNMLIAMMNNSYQLIADHADIEWKFARTKLWMSYFEEGGTLPTPFNVIPSPKSLWYLVKWIWTHLCKKKMRRKPESFGTIGRRAADNLRRHHQYQEVMRNLVKRYVAAMIREAKTEEGLTEENVKELKQDISSFRFEVLGLLRGSK
notes: mouse TRPC4, a.a; 1-758 of 974 (a.a. 759-974 left out); MBP tag removed with PreScission protease; also called mTRPC4; truncated TRPC4; source: HEK293S GnTI- cells, BacMam baculovirus, purified (amylose resin, Superose 6); not shown: MBP, N-terminal, cleaved
stoichiometry N: 4
